# Assay results: paper PMC3265891 (The Journal of Biological Chemistry, 2011)
# Substitutions are numbered along the chain they refer to. Names may count otherwise.
# B1: human UDP-glucose 6-dehydrogenase E161Q mutant (C-terminally truncated) (enzyme, UniProt O60701 1-467, looked up)
# chain: MFEIKKICCIGAGYVGGPTCSVIAHMCPEIRVTVVDVNESRINAWNSPTLPIYEPGLKEVVESCRGKNLFFSTNIDDAIKEADLVFISVNTPTKTYGMGKGRAADLKYIEACARRIVQNSNGYKIVTEKSTVPVRAAESIRRIFDANTKPNLNLQVLSNPQFLAEGTAIKDLKNPDRVLIGGDETPEGQRAVQALCAVYEHWVPREKILTTNTWSSELSKLAANAFLAQRISSINSISALCEATGADVEEVATAIGMDQRIGNKFLKASVGFGGSCFQKDVLNLVYLCEALNLPEVARYWQQVIDMNDYQRRRFASRIIDSLFNTVTDKKIAILGFAFKKDTGDTRESSSIYISKYLMDEGAHLHIYDPKVPREQIVVDLSHPGVSEDDQVSRLVTISKDPYEACDGAHAVVICTEWDMFKELDYERIHKKMLKPAFIFDGRRVLDGLHNELQTIGFQIETIGKKVS
# B2: human UDP-glucose 6-dehydrogenase K220A mutant (C-terminally truncated) (enzyme, UniProt O60701 1-467, looked up)
# chain: B1 chain with Q161E, K220A
# B3: human UDP-glucose 6-dehydrogenase N224A mutant (C-terminally truncated) (enzyme, UniProt O60701 1-467, looked up)
# chain: B1 chain with Q161E, N224A
# B4: human UDP-glucose 6-dehydrogenase D280A mutant (C-terminally truncated) (enzyme, UniProt O60701 1-467, looked up)
# chain: B1 chain with Q161E, D280A
# B5: human UDP-glucose 6-dehydrogenase T131S mutant (C-terminally truncated) (enzyme, UniProt O60701 1-467, looked up)
# chain: B1 chain with T131S, Q161E
# B6: human UDP-glucose 6-dehydrogenase E161Q mutant (thiohemiacetal intermediate) (enzyme, UniProt O60701 1-467, looked up)
# chain: B1 chain
# modifications: Cys276 covalently modified: Sγ bonded to C6 of the UDP-Glc-derived substrate (thiohemiacetal)
# Target: the molecule itself
# Assay: SEC
row,Protein,stoichiometry N
1,B1,6
2,B2,6
3,B3,6
4,B4,6
5,B5,6

# Target: the molecule itself
# Assay: crystal structure
row,Protein,binding result
1,B6,binds
